Source: paper PMC2938955 (Biochemistry, 2010)

Assays:
[1] = biological target: p150^Glued CAP-gly domain, wildtype (residues 19-107) (UniProt Q14203-1 19-107); experiment: SEC
[2] = biological target: p150^Glued CAP-gly domain (residues 19-107) G59A (UniProt Q14203-1 19-107, G59A); experiment: SEC
Sequence of p150^Glued CAP-gly domain (residues 19-107) G59A (Q14203 19-107 G59A): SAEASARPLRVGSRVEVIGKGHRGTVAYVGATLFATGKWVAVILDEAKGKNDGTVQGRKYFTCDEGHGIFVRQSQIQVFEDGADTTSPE

Sequence of p150^Glued CAP-gly domain, wildtype (residues 19-107) (Q14203 19-107): as the sequence (Q14203 19-107 G59A) above, with A41G counted along it

B1: EB1 fragment (residues 194 to 268) (domain or fragment, UniProt Q15691 194-268, looked up)
chain: AELMQQVNVLKLTVEDLEKERDFYFGKLRNIELICQENEGENDPVLQRIVDILYATDEGFVIPDEGGPQEEQEEY
B1: binds [1]; binds [2].
